Measured values reported in paper PMC3155019, “Dynamics of the Phosphoinositide 3-Kinase p110δ Interaction with p85α and Membranes Reveals Aspects of Regulation Distinct from p110α” (Structure(London, England:1993), 2011).
Non-standard residues stand in square brackets, D forms with d. No end group written: not given here. pY = N[C@@H](Cc1ccc(OP(=O)(O)O)cc1)C(=O)O

Biological target: p110δ+p85α nicSH2 complex (human | , UniProt O00329 1-1044; P27986 322-724)
Test: cell-based or functional assay

Sequence of p110δ+p85α nicSH2 complex (O00329 whole entry, stated change not applied, chain 1 of 2): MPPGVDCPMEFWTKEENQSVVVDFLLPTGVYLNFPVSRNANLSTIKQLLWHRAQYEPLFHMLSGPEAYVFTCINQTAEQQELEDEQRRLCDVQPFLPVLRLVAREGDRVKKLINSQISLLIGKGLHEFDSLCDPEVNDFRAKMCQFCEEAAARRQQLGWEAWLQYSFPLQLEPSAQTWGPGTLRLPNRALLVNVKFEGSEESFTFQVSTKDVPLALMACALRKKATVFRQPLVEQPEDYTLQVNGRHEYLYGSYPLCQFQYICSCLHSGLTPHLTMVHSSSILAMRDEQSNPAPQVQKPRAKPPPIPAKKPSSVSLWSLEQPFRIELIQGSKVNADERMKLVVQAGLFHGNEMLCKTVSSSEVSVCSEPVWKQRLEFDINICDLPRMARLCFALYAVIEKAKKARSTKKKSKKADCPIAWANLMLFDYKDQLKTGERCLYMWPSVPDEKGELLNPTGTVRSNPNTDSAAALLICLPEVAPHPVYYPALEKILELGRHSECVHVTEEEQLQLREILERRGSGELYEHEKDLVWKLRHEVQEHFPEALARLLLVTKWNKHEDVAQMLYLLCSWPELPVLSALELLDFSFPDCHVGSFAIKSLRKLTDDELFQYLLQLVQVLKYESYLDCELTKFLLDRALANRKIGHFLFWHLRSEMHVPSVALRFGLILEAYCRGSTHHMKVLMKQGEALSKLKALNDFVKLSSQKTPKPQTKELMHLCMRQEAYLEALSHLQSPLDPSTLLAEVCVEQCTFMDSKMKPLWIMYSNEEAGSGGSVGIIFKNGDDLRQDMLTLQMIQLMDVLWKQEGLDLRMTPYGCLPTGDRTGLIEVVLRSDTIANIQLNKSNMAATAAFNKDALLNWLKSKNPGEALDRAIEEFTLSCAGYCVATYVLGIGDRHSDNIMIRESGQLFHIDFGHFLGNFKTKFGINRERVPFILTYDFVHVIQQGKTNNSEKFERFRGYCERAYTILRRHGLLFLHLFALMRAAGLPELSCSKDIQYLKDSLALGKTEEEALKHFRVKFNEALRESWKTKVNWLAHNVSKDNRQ
Sequence of p110δ+p85α nicSH2 complex (P27986 322-724, stated change not applied, chain 2 of 2): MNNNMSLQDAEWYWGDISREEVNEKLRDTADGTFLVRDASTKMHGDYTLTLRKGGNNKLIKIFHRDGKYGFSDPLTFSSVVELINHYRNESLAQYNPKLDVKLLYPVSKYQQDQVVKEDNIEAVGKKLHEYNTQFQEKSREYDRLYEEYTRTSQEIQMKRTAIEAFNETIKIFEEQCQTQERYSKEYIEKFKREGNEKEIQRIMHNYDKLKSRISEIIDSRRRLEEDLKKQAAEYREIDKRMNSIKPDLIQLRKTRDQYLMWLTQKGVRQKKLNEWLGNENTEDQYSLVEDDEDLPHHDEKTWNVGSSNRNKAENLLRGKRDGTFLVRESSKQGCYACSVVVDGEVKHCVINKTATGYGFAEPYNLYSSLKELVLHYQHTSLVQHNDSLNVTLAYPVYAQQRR

B1: PDGFR bis-phosphorylated pY peptide (residues 735–767, with pY740 and pY751) (peptide)
peptide: ESDGG[pY]MDMSKDESID[pY]VPMLDMKGDIKYADIE
activation of the lipid kinase activity of p110δ+nicSH2 by 10 μM PDGFR pY: ~13 fold
